Assay: soluble on expression in E. coli; label from the status in PepcDB or PDB records

Sequence: MSLTTGRISELLSPNYADLNDPRPIFDWMQVIRKRAVVYVGLDALSDTEVAAAVGNSMFSDLVSVAGHIYKHGVDDGLPGSLAGGKVRINLHADEFNELIGDEFIPMVNKAGGAGVQVTAYTQTMSDIEAKIGSRAKAGQIIGNFNNLFMLRVRETATAELLTNQLPKVQIYTSTPASGANDAINNKKAAFTSSSHDQVQMTSVPMLEPAHIVGLPKGQAFALLEGGNLWKIRMPLPAVDPDEVMPKSLQELAAGMRKGQAANSEGHHHHHH
- soluble on expression in E. coli: not soluble

Sequence: MGSSHHHHHHSSGLVPRGSPQPPADEQPEPRTRRRAYLWCKEFLPGAWRGLREDEFHISVIRGGLSNMLFQCSLPDTTATLGDEPRKVLLRLYGAILQMRSCNKEGSEQAQKENEFQGAEAMVLESVMFAILAERSLGPKLYGIFPQGRLEQFIPSRRLDTEELSLPDISAEIAEKMATFHGMKMPFNKEPKWLFGTMEKYLKEVLRIKFTEESRIKKLHKLLSYNLPLELENLRSLLESTPSPVVFCHNDCQEGNILLLEGRENSEKQKLMLIDFEYSSYNYRGFDIGNHFCEWMYDYSYEKYPFFRANIRKYPTKKQQLHFISSYLPAFQNDFENLSTEEKSIIKEEMLLEVNRFALASHFLWGLWSIVQAKISSIEFGYMDYAQARFDAYFHQKRKLGV
- soluble on expression in E. coli: soluble

Sequence: MGSDKIHHHHHHMAWIKTVAFGDATGKLRKLYDRVTGPGGNVDNIMMAHSLRPHTMEGHMALYKNVLHHSGNELPKWVLEMIGVWVSSLNGCAYCVEHHFAGLKRLMRDDARAEAIRAAIEARDIKALPVRACEMAAMDYARKLTQAPTEMMAADLEPLRAEGLSDGHILEINQVVAYFAYANRTVLGLGCSTEGDVLGLSPGNSDDPTDWGHA
- soluble on expression in E. coli: not soluble

Sequence: GSDSSLFETYNVELVRKDGQSLGIRIVGYVGTSHTGEASGIYVKSVIPGSAAYHNGHIQVNDKIVAVDGVNIQGFANHDVVEVLRNAGQVVHLTLVRRKTSSSTSPLEPPSDRGTV
- soluble on expression in E. coli: soluble

Sequence: MGSDKIHHHHHHMSQTLEQVIQNAGDLVNFVRNQQVGPNVYPGVPAEYSNWRNEQWAWAHSAVLYNQSYHMVDLAVKGPDAFKMLEHLGINSFKNFQPDRAKQFVPVTPDGYVIGDVILFYLDENHFNLVGRAPTIEWVEYHAASGNWNVTVERDERWAMRTDGKRNSYRFQIQGPNAMKIIEKATGKTAPDLKFFHMTRMTIGGKEVRALRHGMAGQPGFELMGPWEDYGAVHAALVEAGKGFQMALVGGRAYSSNTLESGWIPSPFPAIYTGEALRPYREWLSANSYEAKCSVGGSYVPETIEGYYTTPWDLGYGPFVKFDHDFIGRAALEKMAAEGKHRTKVTLALDNEDVMRVQSSALSKGDRAKFMEYPSAVYSMHPFDQVLADGKMVGLSTWIGYTANEGKFLTLAMMEPGYVEPGTQVSLLWGEPNGGTTKPTVEPHVQTEIKATVAAVPYSEVARDSYAEGWRTKK
- soluble on expression in E. coli: not soluble

Sequence: MGTTVEGGRSGPRYVQVADEIVQQIRAGVLKPGDMVPSESEMVDRYGVSGGTIRKAMVEVRASGLVETRHGKGSIVKDRPPVRHRSSDRFRRSLRQGGKAAYLAESEQSGATAKVSVLYIGPMEAPADAAQRLGVPAGTQVLARRRLYFRNGTPVETASSYLPWDVVKDIPELFAENPGGGGIYARLEDHGHEFAEFVETLQARPASKAEATELALSPGAPVVHLIREARTAAGLVVEVCDTLMAADQFVFEYRIPAAD
- soluble on expression in E. coli: not soluble

Sequence: GSHMKITYPLPPNLPEQLPLLTNCQLEDEAILENHLYQQIDLPNQEVRNLVFRDAVFDHLSLANGQFASFDCSNVRFEACDFSNVEWLSGSFHRVTFLRCNLTGTNFADSYLKDCLFEDCKADYASFRFANFNLVHFNQTRLVESEFFEVTWKKLLLEACDLTESNWLNTSLKGLDFSQNTFERLTFSPNYLSGLKVTPEQAIYLASALGLVIT
- soluble on expression in E. coli: soluble

Sequence: MQLYVVLCFLVLLGLSAGQMTFTDQWTKKRATLHKQLPVVTPEEPICPSDRVQAVFEQLDQLQKAQQRLTEYLASCAYPVEVPQKAEKM
- soluble on expression in E. coli: not soluble

Sequence: EQMQSEFFYTDRKKIKWSLPSQPKVDIVELELLVARFIGEEKATKCFEKFHSMNQTKDNKKFNEAILFHAENTLARVLGSASAKLVTSLAISSRGMAFDQVAKLVEDNSTQQLEFSRTVLQSAIENVSEGISVIDSELKLVAWNKQYLDIFSYPEAFIYIGCPISQLIHFNLSQQGYFAKDIDLRVK
- soluble on expression in E. coli: not soluble

Sequence: MTEMELKLIKIDTSHYFEKKPGLGERVDYAGRCFYNKFQRVNAMLTSSLIQKHLKREIEIAHNLILRNDKVENIVFDYNGRNPERFYHKAQLLLREEGFMNFTAYNTKTPGHLHLYVHKGHTELGEGERLVKTLSMKLAQGLPKEWKVFPSNEWPKEFNILALPYEVFAKERGSSWAKHL
- soluble on expression in E. coli: soluble

Sequence: AELVSDKALESAPTVGWASQNGFTTGGAAATSDNIYIVTNISEFTSALSAGAEAKIIQIKGTIDISGGTPYTDFADQKARSQINIPANTTVIGLGTDAKFINGSLIIDGTDGTNNVIIRNVYIQTPIDVEPHYEKGDGWNAEWDAMNITNGAHHVWIDHVTISDGNFTDDMYTTKDGETYVQHDGALDIKRGSDYVTISNSLIDQHDKTMLIGHSDSNGSQDKGKLHVTLFNNVFNRVTERAPRVRYGSIHSFNNVFKGDAKDPVYRYQYSFGIGTSGSVLSEGNSFTIANLSASKACKVVKKFNGSIFSDNGSVLNGSAVDLSGCGFSAYTSKIPYIYDVQPMTTELAQSITDNAGSGKL
- soluble on expression in E. coli: soluble

Sequence: MDRLDRKILYLLQENATLSVADIAKKVGLSTTPCWRRIQKLEEDGVIQRRVAVLSPEKVNAHVTVFVSIRTNTHSQEWLKRFSKIVQEFREVIEFYRMSGDIDYLLRVVVPNIEAYDLFYKKLIAKIDIRDVSSSFAMEQIKYTTELPLNYIKLHDKTSEQNS
- soluble on expression in E. coli: not soluble

Sequence: VKPPHGFQKKMKLEVVDKRNPMFIRVATVADTDDHRVKVHFDGWNNCYDYWIDADSPDIHPVGWCSKTGHPLQPPLSPLELMEASEHGGCSTPG
- soluble on expression in E. coli: soluble

Sequence: MDSNDLEASFTSRLPPEIVAALKRKSSRDPNSRFPRKLHMLLTYLASNPQLEEEIGLSWISDTEFKMKKKNVALVMGIKLNTLNVNLRDLAFEQLQHDKGGWTQWKRSGFTRNSVFEDPTQNDSPMHHHHHH
- soluble on expression in E. coli: soluble

Sequence: MKTRISSSRVRFSRYYLRIRESLISIPSRKNQFRFIRKNRFALQASFRSFTENSLTLSFMLLRRSPMKQSRTFLIF
- soluble on expression in E. coli: not soluble

Sequence: MSKIDFHTHYLPTSYVEALKRHVPGDPDGWPTPEWTPQLTLNFMRDNDISYSILSLSSPHVNFGDKAETIRLVEAANDDGKSLAQQYPDQLGYLASLPIPYELDAVKTVQQALDQDGALGVTVPTNSRGLYFGSPVLERVYQELDARQAIVALHPNEPAILPKNVDIDLPVPLLGFFMDTTMTFINMLKYHFFEKYPNIKVIIPHAGAFLGIVDDEIAQYAQKVYQVDVYDVMHHVYFDVAGAVLPRQLPTLMSLAQPEHLLYGSDIPYTPLDGSRQLGHALATTDLLTNEQKQAIFYDNAHRLLTELEHHHHHH
- soluble on expression in E. coli: not soluble

Sequence: MELVAYAMAAKLITETVQITINSISETLETINSDPTVRIDNLNELKRRNDEAHSQYMKELKEAREESDDALAKRQATADSQISELINSNNEAIRELQKKFDEDAAAYDRSIKETTREHDQKMKEMRSETREAQEKAERNHREKMSKIKEDHDKERVAALQKIDAAKKEGAEMIALVEMEKQKIVRERADEMNEHHKNMETMTKEYHQKREEIHEVIKNKKLDILKDKREHQRIEHEKISENMKNAFNALLNVQRENNAKHLVSNFQQLFEPVEDVKKLLDSVKIKIELVDGKDPKIEAEQLYDLEEIQAKKSIFENRIRRLRSILIHSSFTDRKLHEICSTTISNIETLMNKSDILSVCHHFPRAVEKQDLKKIKHYADMARSLSDTFSQELGNIIDTFSTSSGMYIIEKEHQEAIEN
- soluble on expression in E. coli: soluble

Sequence: MELHIWPSDFGLPTIDVVSLQFLACSKMCASPVRVIQSTRPWRSPSGELPMVAQTEGEAKPVTDFEKFVDILKKCGQDVVIDADLTTIEKAQLDAFSCYLHHNLYPAVMHTFWTDELNYNTVTQYWYASHLHFPYNLYYLEKRRKKALRLLAGKNDTEILKEAFMALNTLSTKLGDNKFFCGNKPTSLDALVFGYLAPLLRVPLPNDRLQVQLSACPNLVRFVETVSSIYLPLGEDELKRQQANRKMWQSRISKAKADKEAAKTTEEASESLPEEPPMRDAILFTLGALTLSLVFAIHTGLIQVSVEEEISE
- soluble on expression in E. coli: not soluble

Sequence: DEPILSFSPKTYSFRQDGRIKEVSVFTYHKKYNPDKHYIYVVRILREGQIEPSFVFRTFDEFQELHNKLSIIFPLWKLPGFPNRMVLGRTHIKDVAAKRKIELNSYLQSLMNASTDVAECDLVCTFFHPLLRDEKAEGIA
- soluble on expression in E. coli: soluble

Sequence: MSLKHYQRINELEEKKIKLRERPVIDELSKVKKLKLTGQTEALFESWRSSWDEIETRLFPDLEEVLLEAEMNTDRYKFRSATHAENDIEQMLVVIEKQMDQILGGLKELLISEEKNAKESRATKEKFAELRREVLTRGFKLGETLPYIETKLSELSESLNSYDSLTDQGDHLEAREIVIVVQKEMQVIEAQMERIPSLLHETDTILPEEMTKLRAGYEEMVRKGYYLAQMELDKEISRMKNQIDKMKKNVINLDLDEAEQGVEELHNEIDLFYDTLEHEAEARHFVKENHSPTSDKLQRQNAVSDALAEQITEVKQTYHVAEDDLAVYLKTSAKLSEAKENFEQLTALIASGEIAYSAAQDTLKEIDAALITISAEQDKFAEELRSLRKDELEARDDAERMRRAIITLDRKMERERLPGLPEEYLSLREHMGESINALEKRLEEKPLNMKAVSQDWRIAEEDLTHLTEKAEEMMENVRLVEHVIQYANRYRLRNKELADELVQAENHFYNDYQYKKALEIAVTALEKVETGAFKKVEKAYESKVSVDEGHHHHHH
- soluble on expression in E. coli: soluble

Sequence: MAHHHHHHMDARVHRSKRGCGRVLKRSRASSPEVVAEVGTGRPGDPFVLPLRSSPNGSGCHHCPEHSCDCLYVSKELERCYLSLQVSRQVTCKGRRELCAKSVLPPFVARLLRVANVTADDTFYDLGCGNGSVLFHVALATGASCVGVEINEHNAKVAKEAWTHLRPVFEKRRGRKLDVSIVCGDFCKVLKQDNYFSSSCVVWIANLLMPRFVNHYLSERLRSLPIGSRVLCMEDLYPHSRSVAAARDPDAFEKFEMVDYRWQEDSVEWSPASGPFYLYIKRS
- soluble on expression in E. coli: not soluble

Sequence: MSLNLATLQSQFAKALHYQALGEDCDIASDEFTADERIQIYRNNFIVSLSEVLSATYPMVEALLGEECFEQIARQHVLSYPLKEGNVVHYGEGFQDTIMQFSQVIAQAPYSPEVARFEWHIDLARQAQYEQSNAAELKPLALLGEVSEEQQPALVLHLKKGCRSFDSNYAVFDLFSAIQTGQFEQLNINQLQQGVISIQANGEALCHALDADVFQLLQCLEQKQSLSEIPEVLLAHLNRIMALDIVDGFTLQSIEGHHHHHH
- soluble on expression in E. coli: soluble

Sequence: MIKLVRIDYRLLHGQVVFAWTRALDIDHIIVANANAAGDAFVSMSLSLAKPAGVSLDIITVEQAAEKLASGKLDHKKVMVVLGNTAETLAFVEKVPGISVINYGGIAQKEGAQQFGKAIYLTEQEIADSQALKAKGIRLEMRQVPAHSAELLNDKL
- soluble on expression in E. coli: not soluble

Sequence: MVEADPRFQEAIRLFNAQEWYAAHDVLEEIWHETADPERRCLQGLLQVAVAQLHLQRDNQRGATILFGEALGRLRRPGTPDLGLDLPALCHCVQGRLVQLQQDGDPESCTVPVLSPSP
- soluble on expression in E. coli: not soluble

Sequence: MKYLLPTAAAGLLLLAAQPAMAMASGGNSDSKTLNSLDKIKQNGVVRIGVFGDKPPFGYVDEKGNNQGYDIALAKRIAKELFGDENKVQFVLVEAANRVEFLKSNKVDIILANFTQTPQRAEQVDFCSPYMKVALGVAVPKDSNITSVEDLKDKTLLLNKGTTADAYFTQNYPNIKTLKYDQNTETFAALMDKRGDALSHDNTLLFAWVKDHPDFKMGIKELGNKDVIAPAVKKGDKELKEFIDNLIIKLGQEQFFHKAYDETLKAHFGDDVKADDVVIEGGKILEHHHHHH
- soluble on expression in E. coli: soluble

Reference: the DeepSol protein solubility set
